Biological target: T1, GST-SV343-571 (bovine, UniProt O46385-2 343-571)
T1 sequence (looked up): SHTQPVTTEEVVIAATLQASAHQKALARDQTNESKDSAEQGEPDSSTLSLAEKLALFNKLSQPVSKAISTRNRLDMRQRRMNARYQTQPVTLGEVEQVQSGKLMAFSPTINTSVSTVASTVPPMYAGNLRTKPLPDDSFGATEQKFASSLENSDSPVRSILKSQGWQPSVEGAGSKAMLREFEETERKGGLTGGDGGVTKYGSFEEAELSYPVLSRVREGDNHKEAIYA
Assay: pull-down

- binding result: binds
B1: 6×His-tagged TRIP6 LIM domains (aa 265-476) (domain or fragment, human (HeLa cell cDNA library), UniProt Q15654-1 265-476, looked up)
chain: HDMNHPPSGEYFGQCGGCGEDVVGDGAGVVALDRVFHVGCFVCSTCRAQLRGQHFYAVERRAYCEGCYVATLEKCATCSQPILDRILRAMGKAYHPGCFTCVVCHRGLDGIPFTVDATSQIHCIEDFHRKFAPRCSVCGGAIMPEPGQEETVRIVALDRSFHIGCYKCEECGLLLSSEGECQGCYPLDGHILCKACSAWRIQELSATVTTDC
